# According to patent US20060002929A1 (published 2006):
# Substitutions are numbered along the chain they refer to.
# B1: hOX40R-Fc (Fc fusion, human, UniProt P43489 29-214, looked up)
# chain: LHCVGDTYPSNDRCCHECRPGNGMVSRCSRSQNTVCRPCGPGFYNDVVSSKPCKPCTWCNLRSGSERKQLCTATQDTVCRCRAGTQPLDSYKPGVDCAPCPPGHFSPGDNQACKPWTNCTLAGKHTLQPASNSSDAICEDRDPPATQPQETQGPPARPITVQPTEAWPRTSQGPSTRPVEVPGGRA
# notes: Defined as 'the human IgG Fc domain fused to the human OX40 receptor'; also called hFc-OX40R; HFc-OX40R; not shown: Fc domain of human IgG
# B2: Ab B (antibody, V domains shown)
# VH: QVQLQESGPGLVKPSETLSLTCTVSGGSISTYYWNWIRQPAGKGLEWIGRIYISGSTNYNPSLKSRVTMSVDTSKNQFSLKLSSVTAADTAVYYCARDRVDIVATKGHYYYGMDVWGQGTTVTVSS
# VL: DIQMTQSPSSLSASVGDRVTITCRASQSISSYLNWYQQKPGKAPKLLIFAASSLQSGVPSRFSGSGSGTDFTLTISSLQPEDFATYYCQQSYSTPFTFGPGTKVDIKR
# notes: Human anti-OX40L monoclonal antibody
# B3: Ab C (antibody, V domains shown)
# VH: QVQLVESGGGVVQPGRSLRLSCAASGFTFSFYGMHWVRQAPGKGLEWVAVIWYDGSNKYYADSVKGRFTISRDNSKNTLYLQMNSLRAEDTAVYYCARGGYDYVWGSYRRNSDFDYWGQGTLVTVSS
# VL: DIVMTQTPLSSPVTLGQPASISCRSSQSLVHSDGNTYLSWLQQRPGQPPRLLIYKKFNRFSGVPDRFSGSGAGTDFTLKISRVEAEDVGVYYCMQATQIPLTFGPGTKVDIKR
# notes: as for B2
# B4: Ab A (antibody, V domains shown)
# VH: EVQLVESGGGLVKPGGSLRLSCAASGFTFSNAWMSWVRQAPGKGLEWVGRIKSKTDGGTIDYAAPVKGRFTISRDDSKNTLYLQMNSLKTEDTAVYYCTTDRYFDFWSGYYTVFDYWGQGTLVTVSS
# VL: DIQMTQSPSSLSASVGDRVTITCRASQGISNHLVWYQQKVGKVPKLLIYAASTLQSGVPSRFSGSGSGTDFTLTISSLQPEDVATYYCQKFNSAPFTFGPGTKVDIKR
# notes: Human anti-OX40L monoclonal antibody from transgenic mice
# B5: Ab E (antibody, V domains shown)
# VH: EVQLVESGGGLVKPGGSLRLSCAASGFTFSNAWMSWVRQAPGKGLEWVGRIKRKTDGGTIDYAAPVKGRFTISRADSKNTLFLQMNSLITEDTAVYYCTISYYYDYSGYYYVDHWGQGTLVTVSS
# VL: B4 VL with V40P, F91Y, F96L, P100G, D105E
# notes: as for B2
# B6: Ab F (antibody, V domains shown)
# VH: B5 VH
# VL: B4 VL with V40P, F91Y, F96L, P100G, D105E
# notes: as for B2
# B7: Human Fc-OX40L (Fc fusion, UniProt P23510 51-183, looked up)
# chain: QVSHRYPRIQSIKVQFTEYKKEKGFILTSQKEDEIMKVQNNSVIINCDGFYLISLKGYFSQEVNISLHYQKDEEPLFQLKKVRSVNSLMVASLTYKDKVYLNVTTDNTSLDDFHVNGGELILIHQNPGEFCVL
# notes: Defined as 'the Fc domain of human IgG fused to human OX40L'; Made in 293T or COS cells; also called hFc-OX40L; HFc-OX40L; not shown: Fc domain of human IgG
# What was measured:
# Human Fc-OX40L [1] = biological target: B7; assay: cell-based or functional assay
# Human Fc-OX40L [2] = biological target: B7; assay: BIAcore, immobilized hFc-OX40L
# Human Fc-OX40L [3] = biological target: B7; assay: BIAcore solution equilibrium at 0.2 and 0.6 nM binder, dual-curve one-site fit (KinExA software)
# Method: (§1) Specifically, BIACore chips were prepared as described above in Example 1, with the following modifications. HFc-OX40L was immobilized to the sensor chip at a high density of 8,000 RU. […] Samples were incubated at room temperature for at least five hours to allow samples to reach equilibrium. Samples were then injected over the immobilized hFc-OX40L surface for 30 minutes at 10 μl/min. After the sample injection, the samples were allowed to dissociate for 3 minutes, and then the surface was regenerated by injecting 8 mM glycine, pH 3.0, 1 M NaCl for 30 seconds. The binding signals, measured in RU, obtained were proportional to the free antibody in solution at equilibrium for a given concentration of ligand. The dissociation equilibrium constant (KD) was obtained from nonlinear regression analysis of the competition curves using a dual-curve one-site homogeneous binding model (KinExA software v. 2.3, Sapidyne Instruments Inc., Boise Id.).
# 018-muOX40L [4] = biological target: T1, 018-muOX40L (mouse, UniProt P43488); assay: Luminex bead assay: antigen loaded on biotin beads, antibody titrated, detection anti-huIgG-PE [panel Ab C]
# T1 construct: also called mouse OX40L
# T1 sequence (bead-bound control antigen, looked up): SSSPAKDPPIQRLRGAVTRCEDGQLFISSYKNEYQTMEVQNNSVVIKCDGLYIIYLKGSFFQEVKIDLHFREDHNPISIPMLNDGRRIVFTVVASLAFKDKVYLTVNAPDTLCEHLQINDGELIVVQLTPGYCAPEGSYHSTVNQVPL
# Human Fc-OX40L [5] = biological target: B7; assay: BIAcore solution equilibrium: 0.2 nM antibody pre-mixed with 20-0.005 nM hFc-OX40L, free antibody read on immobilized hFc-OX40L
# Method: The binding equilibrium of four of the antibodies was assessed on a BIACore chip as described above in Example 1 with the following modifications. HFc-OX40L was immobilized to the sensor chip at a high density of 8,000 RU. Serial 2.5-fold dilutions of hFc-OX40L were prepared in sample buffer so that the final concentration of hFc-OX40L, once mixed with an anti-OX40L antibody, ranged between 20 nM to 0.005 nM. Monoclonal anti-OX40L antibody candidates were mixed with each hFc-OX40L dilution in a total of 400 μl so that the final concentration of monoclonal antibody was 0.2 nM. Samples were incubated at room temperature for at least five hours to allow samples to reach equilibrium. Samples were then injected over the immobilized hFc-OX40L surface for 30 minutes at 10 μl/min. After the sample injection, the samples were allowed to dissociate for 3 minutes, and then the surface was regenerated by injecting 8 mM glycine, pH 3.0, 1 M NaCl for 30 seconds. The binding signals obtained were proportional to the free antibody in solution at equilibrium for a given concentration of ligand. Plotting the binding signal versus ligand concentration, and using the scientific graphing software program GraphPad Prizm, the EC₅₀ values for each antibody at a given concentration in the presence of varying concentrations of hFc-OX40L were calculated.
# 018-muOX40L [6] = biological target: T1, 018-muOX40L; assay: Luminex bead assay: antigen loaded on biotin beads, antibody titrated, detection anti-huIgG-PE [panel Ab F]
# hOX40R-Fc = biological target: B1; assay: BIAcore solution equilibrium at 0.2 and 0.6 nM binder, dual-curve one-site fit (KinExA software)
# Method: as §1
Binder,IL-2 Inhibition (IC50 [nM]) (Human Fc-OX40L [1]),EC50 (Human Fc-OX40L [2]),Kd (Human Fc-OX40L [3]),binding result (018-muOX40L [4]),EC50 (Human Fc-OX40L [5]),binding result (018-muOX40L [6]),Kd (hOX40R-Fc)
B1,5.2 nM,1000 pM,,,,,
B2,0.49 nM,600 pM,,,,,
B3,2 nM,100 pM,33 pM,no binding (tested: 100 nM),101 pM,,
B4,0.32 nM,1000 pM,,,,,
B5,0.58 nM,690 pM,,,686 pM,,
B6,,,120 pM,,402 pM,no binding (tested: 100 nM),
B7,,,,,,,1000 pM
